Measured values: US20260166128A1, “HUMAN AMYLIN ANALOG, AND DERIVATIVE THEREOF AND USE THEREOF” (priority 2022, published 2026)
Numbered stars: 1 amine (or outer) side, 2 acyl side, 3 side chain; on linkers, the order of the positions; unused ones are H or OH. Bridge positions count the residues as written; N and C are the ends. Square brackets hold non-standard residues; d marks the D form. Primed or numbered codes have the meaning given here. Side chains are listed from the residue outwards. Peptide text beside a SMILES is read from it. * marks the point of attachment. C20 diacid = O=C(O)CCCCCCCCCCCCCCCCCCC(=O)*; C18 diacid = O=C(O)CCCCCCCCCCCCCCCCC(=O)*; X1 = N[C@@H]1CCN([*:1])[C@@H]1C(=O)[*:2]; C16 diacid = O=C(O)CCCCCCCCCCCCCCC(=O)*; γGlu = O=C(O)[C@H](CCC(=O)[*:2])N[*:1]; C14 diacid = O=C(O)CCCCCCCCCCCCC(=O)*; C12 diacid = O=C(O)CCCCCCCCCCC(=O)*; HOOC(CH2)8CO = O=C(O)CCCCCCCCC(=O)*; Trx′ = not defined here

Experiment: Freeze-thaw stability of derivatives (freeze-thaw yield by liquid chromatography)
Format: physicochemical
Conditions: for Dissolution property: appearance after dissolution at 0.2 mg/ml in 20 mM phosphate buffer solution (PB) (pH 7.0); for Freeze storage property: appearance after overnight storage at −20° C. and thawing to room temperature, 0.2 mg/ml in 20 mM PB (pH 7.0); for Freeze storage yield: concentration of polypeptide after freezing and thawing / concentration before, by liquid chromatography, −20° C. overnight
Protocol: The freeze-dried powder of the polypeptide analog derivative prepared in Example 1 was mixed with a buffer solution according to a mass-volume ratio of 0.2 mg/ml, the polypeptide was dissolved with 20 mM phosphate buffer solution (PB) (pH 7.0), the sample was stored at −20° C. for overnight storage, and then the sample was taken out to be restored to room temperature for thawing. During the experiment, property changes of the polypeptide after dissolution and freezing and thawing were observed and recorded respectively, and concentrations of the polypeptide before and after the freezing and thawing were detected by the following liquid chromatography method: Materials and equipment: high-performance liquid chromatographic instrument (Agilent 1200), ultrapure water (18.2 MΩ self-manufactured ultrapure water), acetonitrile (HPLC grade), and trifluoroacetic acid (HPLC grade); and reversed-phase chromatographic column: […] A sample to be tested was centrifuged at 10,000 rpm and 4° C. for 3 minutes, and a supernatant was taken and added into a liquid-phase sample injection bottle. […] A freeze-thaw yield was calculated by the following formula: freeze-thaw yield=concentration of polypeptide after the freezing and thawing/concentration of polypeptide before the freezing and thawing.

Compound	Dissolution property	Freeze storage property	Freeze storage yield [%]
CC[C@H](C)[C@H](NC(=O)[C@@H]1CCCN1C(=O)[C@H](CCCCNC(=O)CC[C@H](NC(=O)CCCCCCCCCCCCCCCCCCC(=O)O)C(=O)O)NC(=O)[C@H](CC(C)C)NC(=O)[C@H](CC(N)=O)NC(=O)[C@H](CC(N)=O)NC(=O)[C@H](CO)NC(=O)[C@H](CO)NC(=O)[C@H](Cc1c[nH]cn1)NC(=O)[C@H](CCCNC(=N)N)NC(=O)[C@H](CC(C)C)NC(=O)[C@H](Cc1ccccc1)NC(=O)[C@H](CCC(=O)O)NC(=O)[C@H](C)NC(=O)[C@H](CC(C)C)NC(=O)[C@H](CCCNC(=N)N)NC(=O)[C@H](CCC(N)=O)NC(=O)[C@@H](NC(=O)[C@H](C)NC(=O)[C@@H]1CSSC[C@H](NC(=O)[C@@H](N)CCCNC(=N)N)C(=O)N[C@@H](CC(N)=O)C(=O)N[C@@H]([C@@H](C)O)C(=O)N[C@@H](C)C(=O)N[C@@H]([C@@H](C)O)C(=O)N1)[C@@H](C)O)C(=O)N[C@@H](CC(C)C)C(=O)N1CCC[C@H]1C(=O)N1CCC[C@H]1C(=O)N[C@H](C(=O)N[C@@H](CC(N)=O)C(=O)N[C@H](C(=O)NCC(=O)N[C@@H](CO)C(=O)N[C@@H](CC(N)=O)C(=O)N[C@H](C(=O)N1CC[C@@H](N)[C@H]1C(N)=O)[C@@H](C)O)C(C)C)[C@@H](C)O [PD061] (H-RCNTATCATQRLAEFLRHSSNNLK([γGlu-C20 diacid])PILPPTNVGSNT[X1]-NH2; disulfide 2-7; N-terminus assumed)	Clear	Clear	100.32
PD148: KCNTATCATQRLADFLRHSSNNLKPILPPTNVGSNT-trans-Hyp-NH2; N-terminal, 1K-ϵ; γGlu + C10 diacid ({HOOC(CH2)8CO-γGlu}-K([γGlu-HOOC(CH2)8CO])CNTATCATQRLADFLRHSSNNLKPILPPTNVGSNT-{trans‑Hyp-NH2}; disulfide 2-7 (inferred))	Clear	Clear	103.34
CC[C@H](C)[C@H](NC(=O)[C@@H]1CCCN1C(=O)[C@H](CCCCNC(=O)CC[C@H](NC(=O)CCCCCCCCCCCCCCCCCCC(=O)O)C(=O)O)NC(=O)[C@H](CC(C)C)NC(=O)[C@H](CC(N)=O)NC(=O)[C@H](CC(N)=O)NC(=O)[C@H](CO)NC(=O)[C@H](CO)NC(=O)[C@H](Cc1c[nH]cn1)NC(=O)[C@H](CCCNC(=N)N)NC(=O)[C@H](CC(C)C)NC(=O)[C@H](Cc1ccccc1)NC(=O)[C@H](CC(=O)O)NC(=O)[C@H](C)NC(=O)[C@H](CC(C)C)NC(=O)[C@H](CCCNC(=N)N)NC(=O)[C@H](CCC(N)=O)NC(=O)[C@@H](NC(=O)[C@H](C)NC(=O)[C@@H]1CSSC[C@H](NC(=O)[C@@H](N)CCCNC(=N)N)C(=O)N[C@@H](CC(N)=O)C(=O)N[C@@H]([C@@H](C)O)C(=O)N[C@@H](C)C(=O)N[C@@H]([C@@H](C)O)C(=O)N1)[C@@H](C)O)C(=O)N[C@@H](CC(C)C)C(=O)N1CCC[C@H]1C(=O)N1CCC[C@H]1C(=O)N[C@H](C(=O)N[C@@H](CC(N)=O)C(=O)N[C@H](C(=O)NCC(=O)N[C@@H](CO)C(=O)N[C@@H](CC(N)=O)C(=O)N[C@H](C(=O)N1CCC[C@H]1C(N)=O)[C@@H](C)O)C(C)C)[C@@H](C)O [PD048] (H-RCNTATCATQRLADFLRHSSNNLK([γGlu-C20 diacid])PILPPTNVGSNTP-NH2; disulfide 2-7 (inferred); N-terminus assumed)	Clear	Clear	102.16
CC[C@H](C)[C@H](NC(=O)[C@@H]1CCCN1C(=O)[C@H](CCCCNC(=O)CC[C@H](NC(=O)CCCCCCCCCCCCCCCCCCC(=O)O)C(=O)O)NC(=O)[C@H](CC(C)C)NC(=O)[C@H](CC(N)=O)NC(=O)[C@H](CC(N)=O)NC(=O)[C@H](CO)NC(=O)[C@H](CO)NC(=O)[C@H](Cc1c[nH]cn1)NC(=O)[C@H](CCCNC(=N)N)NC(=O)[C@H](CC(C)C)NC(=O)[C@H](Cc1ccccc1)NC(=O)[C@H](CC(=O)O)NC(=O)[C@H](C)NC(=O)[C@H](CC(C)C)NC(=O)[C@H](CCCNC(=N)N)NC(=O)[C@H](CCC(N)=O)NC(=O)[C@@H](NC(=O)[C@H](C)NC(=O)[C@@H]1CSSC[C@H](NC(=O)[C@@H](N)CCCNC(=N)N)C(=O)N[C@@H](CC(N)=O)C(=O)N[C@@H]([C@@H](C)O)C(=O)N[C@@H](C)C(=O)N[C@@H]([C@@H](C)O)C(=O)N1)[C@@H](C)O)C(=O)N[C@@H](CC(C)C)C(=O)N1CCC[C@H]1C(=O)N1CCC[C@H]1C(=O)N[C@H](C(=O)N[C@@H](CC(N)=O)C(=O)N[C@H](C(=O)NCC(=O)N[C@@H](CO)C(=O)N[C@@H](CC(N)=O)C(=O)N[C@H](C(=O)N1CCC[C@H]1C(N)=O)[C@@H](C)O)C(C)C)[C@@H](C)O [PD042] (H-RCNTATCATQRLADFLRHSSNNLK([γGlu-C20 diacid])PILPPTNVGSNTP-NH2; disulfide 2-7 (inferred); N-terminus assumed)	Clear	Clear	95.19
PD139: KCNTATCATQRLADFLRHSSNNLGPILPPTNVGSNT-trans-Hyp-NH2; N-terminal, 1K-ϵ; γGlu + C18 diacid ({C18 diacid-γGlu}-K([γGlu-C18 diacid])CNTATCATQRLADFLRHSSNNLGPILPPTNVGSNT-{trans‑Hyp-NH2}; disulfide 2-7 (inferred))	Clear	Clear	104.78
PD135: KCNTATCATQRLADFLRHSSNNLGPILPPTNVGSNT-trans-Hyp-NH2; N-terminal, 1K-ϵ; γGlu + C10 diacid ({HOOC(CH2)8CO-γGlu}-K([γGlu-HOOC(CH2)8CO])CNTATCATQRLADFLRHSSNNLGPILPPTNVGSNT-{trans‑Hyp-NH2}; disulfide 2-7 (inferred))	Clear	Clear	110.57
PD137: KCNTATCATQRLADFLRHSSNNLGPILPPTNVGSNT-trans-Hyp-NH2; N-terminal, 1K-ϵ; γGlu + C14 diacid ({C14 diacid-γGlu}-K([γGlu-C14 diacid])CNTATCATQRLADFLRHSSNNLGPILPPTNVGSNT-{trans‑Hyp-NH2}; disulfide 2-7 (inferred))	Clear	Clear	102.20
PD133: KCNTATCATQRLADFLRHSSNNLGPILPPTNVGSNT-trans-Hyp-NH2; N-terminal; Trx + C20 diacid ({C20 diacid-Trx′}-KCNTATCATQRLADFLRHSSNNLGPILPPTNVGSNT-{trans‑Hyp-NH2}; disulfide 2-7 (inferred); reading uncertain; also: printed as KCNTATCATQRLADFLRHSSNNLGPILPPTNVGSNT-trans-Hyp-NH2)	Clear	Clear	98.24
CC[C@H](C)[C@H](NC(=O)[C@@H]1CCCN1C(=O)[C@H](CCCCNC(=O)CC[C@H](NC(=O)CCCCCCCCCCCCCCCCCCC(=O)O)C(=O)O)NC(=O)[C@H](CC(C)C)NC(=O)[C@H](CC(N)=O)NC(=O)[C@H](CC(N)=O)NC(=O)[C@H](CO)NC(=O)[C@H](CO)NC(=O)[C@H](Cc1c[nH]cn1)NC(=O)[C@H](CCCNC(=N)N)NC(=O)[C@H](CC(C)C)NC(=O)[C@H](Cc1ccccc1)NC(=O)[C@H](CC(=O)O)NC(=O)[C@H](C)NC(=O)[C@H](CC(C)C)NC(=O)[C@H](CCCNC(=N)N)NC(=O)[C@H](CCC(N)=O)NC(=O)[C@@H](NC(=O)[C@H](C)NC(=O)[C@@H]1CSSC[C@H](NC(=O)[C@@H](N)CCCNC(=N)N)C(=O)N[C@@H](CC(N)=O)C(=O)N[C@@H]([C@@H](C)O)C(=O)N[C@@H](C)C(=O)N[C@@H]([C@@H](C)O)C(=O)N1)[C@@H](C)O)C(=O)N[C@@H](CC(C)C)C(=O)N1CCC[C@H]1C(=O)N1CCC[C@H]1C(=O)N[C@H](C(=O)N[C@@H](CC(N)=O)C(=O)N[C@H](C(=O)NCC(=O)N[C@@H](CO)C(=O)N[C@@H](CC(N)=O)C(=O)N[C@H](C(=O)N1CC[C@@H](N)[C@H]1C(N)=O)[C@@H](C)O)C(C)C)[C@@H](C)O [PD062] (H-RCNTATCATQRLADFLRHSSNNLK([γGlu-C20 diacid])PILPPTNVGSNT[X1]-NH2; disulfide 2-7; N-terminus assumed)	Clear	Clear	102.63
PD149: KCNTATCATQRLADFLRHSSNNLKPILPPTNVGSNT-trans-Hyp-NH2; N-terminal, 1K-ϵ; γGlu + C12 diacid ({C12 diacid-γGlu}-K([γGlu-C12 diacid])CNTATCATQRLADFLRHSSNNLKPILPPTNVGSNT-{trans‑Hyp-NH2}; disulfide 2-7 (inferred))	Clear	Clear	99.99
PD136: KCNTATCATQRLADFLRHSSNNLGPILPPTNVGSNT-trans-Hyp-NH2; N-terminal, 1K-ϵ; γGlu + C12 diacid ({C12 diacid-γGlu}-K([γGlu-C12 diacid])CNTATCATQRLADFLRHSSNNLGPILPPTNVGSNT-{trans‑Hyp-NH2}; disulfide 2-7 (inferred))	Clear	Clear	108.07
PD138: KCNTATCATQRLADFLRHSSNNLGPILPPTNVGSNT-trans-Hyp-NH2; N-terminal, 1K-ϵ; γGlu + C16 diacid ({C16 diacid-γGlu}-K([γGlu-C16 diacid])CNTATCATQRLADFLRHSSNNLGPILPPTNVGSNT-{trans‑Hyp-NH2}; disulfide 2-7 (inferred))	Clear	Clear	106.03
